Square brackets hold non-standard residues; d marks the D form. Ends that are not written are not given here. Met(O) = CS(=O)CC[C@H](N)C(=O)O
molecular target: T1, mouse ADAMTS7 (Mus musculus, UniProt Q68SA9, E373Q); test: TMT10 TAILS N-terminomics, SMC2 experiment (process replicates, trypsin/AspN digest); assay type: cell-based; conditions: SMC2_TAILS HC; log fold change of N-terminal peptide, Ad-mADAMTS7 EQ over Luc
T1 construct: Full-length mouse Adamts7 1-1857 (Uniprot Q68SA9, WT or E373Q catalytic mutant); expressed in transfected cells; host or cells: Human Coronary Artery Smooth Muscle Cells (HCA-SMC, Lonza), adenovirus 50 MOI
T1 sequence (Q68SA9 221-1657 E373Q): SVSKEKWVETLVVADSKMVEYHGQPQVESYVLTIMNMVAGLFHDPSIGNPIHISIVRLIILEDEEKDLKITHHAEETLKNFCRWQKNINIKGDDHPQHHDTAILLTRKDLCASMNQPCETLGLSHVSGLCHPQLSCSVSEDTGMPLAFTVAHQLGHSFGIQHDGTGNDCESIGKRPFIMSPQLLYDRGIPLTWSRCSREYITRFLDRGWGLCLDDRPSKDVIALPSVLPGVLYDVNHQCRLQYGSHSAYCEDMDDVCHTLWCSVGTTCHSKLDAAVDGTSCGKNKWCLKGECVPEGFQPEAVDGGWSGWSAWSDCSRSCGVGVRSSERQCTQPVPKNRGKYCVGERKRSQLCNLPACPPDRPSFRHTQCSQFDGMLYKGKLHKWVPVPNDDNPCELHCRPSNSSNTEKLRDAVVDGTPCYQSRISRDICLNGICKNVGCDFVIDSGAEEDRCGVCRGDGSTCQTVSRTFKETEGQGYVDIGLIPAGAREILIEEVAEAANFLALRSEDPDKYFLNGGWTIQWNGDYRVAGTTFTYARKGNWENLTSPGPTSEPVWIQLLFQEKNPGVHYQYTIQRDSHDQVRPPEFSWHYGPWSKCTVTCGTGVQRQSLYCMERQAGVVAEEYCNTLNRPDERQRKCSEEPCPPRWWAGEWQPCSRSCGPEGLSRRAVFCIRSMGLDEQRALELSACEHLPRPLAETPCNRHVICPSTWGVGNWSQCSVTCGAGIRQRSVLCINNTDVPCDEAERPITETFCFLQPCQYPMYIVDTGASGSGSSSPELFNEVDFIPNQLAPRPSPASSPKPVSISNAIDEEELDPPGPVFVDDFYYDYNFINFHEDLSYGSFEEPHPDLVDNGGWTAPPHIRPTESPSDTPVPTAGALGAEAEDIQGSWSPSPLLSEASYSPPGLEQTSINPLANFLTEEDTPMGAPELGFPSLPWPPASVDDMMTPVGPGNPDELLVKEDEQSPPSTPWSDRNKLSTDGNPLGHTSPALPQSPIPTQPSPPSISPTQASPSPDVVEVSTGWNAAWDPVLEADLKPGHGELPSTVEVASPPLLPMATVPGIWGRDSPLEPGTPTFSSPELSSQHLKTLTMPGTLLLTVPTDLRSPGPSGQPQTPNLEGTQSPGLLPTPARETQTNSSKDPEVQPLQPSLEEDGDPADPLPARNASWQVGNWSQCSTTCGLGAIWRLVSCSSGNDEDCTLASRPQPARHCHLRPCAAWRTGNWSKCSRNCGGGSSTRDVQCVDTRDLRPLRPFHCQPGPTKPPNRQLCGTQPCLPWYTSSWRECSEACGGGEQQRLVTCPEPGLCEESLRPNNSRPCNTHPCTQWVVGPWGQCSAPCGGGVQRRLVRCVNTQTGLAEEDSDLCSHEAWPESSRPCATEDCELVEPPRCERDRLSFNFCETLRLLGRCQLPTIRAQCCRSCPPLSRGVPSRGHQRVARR
Summary of the method: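 Full-length mouse ADAMTS7 (WT or E373Q mutant, C-terminal 3xFLAG) or luciferase was transduced via adenovirus, 50 MOI, into HCA-SMC (SMC1, SMC2) or HUVEC. SMC1: pooled media, technical triplicates 400 ug; SMC2: process triplicates 300 ug; HUVEC: process triplicates 200 ug, bFGF2 10 ng/ml.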

logFC.mEQ.over.Luc	Substance
−0.11	LOXL1_218 (AVASAGVIYPYQPR; listed as Homo sapiens)
0.11	LOXL2_45 (HQPQAPANVAKIQLR; listed as Homo sapiens)
−0.09	LTBP2_79 (VAGLQPVER; listed as Homo sapiens)
−0.21	LTBP2_250 (SAAGEGTLAR; listed as Homo sapiens)
−0.10	LTBP2_290 (QHVGLSR; listed as Homo sapiens)
−0.18	LTBP2_502 (LVENSVETRPPPWLPASPGHSLW; listed as Homo sapiens)
−0.92	LTBP3_103 (LTGSGFR; listed as Homo sapiens)
−0.03	LTBP3_208 (FLVPLGPGQISA; listed as Homo sapiens)
−0.02	MAP4_815 (AVASTGPSSR; listed as Homo sapiens)
0.02	MAP4_816 (VASTGPSSR; listed as Homo sapiens)
−0.05	MMP1_100 (FVLTEGNPR; listed as Homo sapiens)
−0.37	MMP1_185 (FQPGPGIGG; listed as Homo sapiens)
−0.08	NBEA_1892 (LEKVAPLLR; listed as Homo sapiens)
−0.22	NID1_360 (FHQQHPQVI; listed as Homo sapiens)
0.00	NID2_291 (HSSVPLGR; listed as Homo sapiens)
−0.06	NID2_951 (YAYPGAR; listed as Homo sapiens)

logFC.mEQ.over.Luc	Substance
0.69	PAK4_141 (HSEAGGGSG; listed as Homo sapiens)
0.07	PLIN3_75 (VSGAQPILSKL; listed as Homo sapiens)
−0.09	POSTN_727 (IITGPEIKYTR; listed as Homo sapiens)
0.03	PPP1R18_295 (LSETLTR; listed as Homo sapiens)
−0.08	PTPRF_1859 (MRYEGVVDMFQTVKTLR; listed as Homo sapiens)
−0.49	QSOX1_210 (HKGVAVR; listed as Homo sapiens)
0.04	SHC2_267 (VAKDPINQRACHIL; listed as Homo sapiens)
−0.65	SPOCK1_27 (LAGGAGPNHGNFL; listed as Homo sapiens)
0.05	SRGN_59 (LLPGESNKIPR; listed as Homo sapiens)
0.06	TNPO2_744 (VQ[Met(O)]VLNNLVEII[code n]RP[code n]TPKTLLE; listed as Homo sapiens)
−0.59	TNS1_236 (QEGLAGYQR; listed as Homo sapiens)
0.23	TRGC2_86 (HRCIVRHENNK; listed as Homo sapiens)
−0.19	TTN_5975 (VKEPPVEFTKPL; listed as Homo sapiens)
0.27	VAT1_42 (AASPPLLR; listed as Homo sapiens)
−0.22	VIM_314 (QESTEYR; listed as Homo sapiens)
−0.09	VIM_333 (LKGTNESLER; listed as Homo sapiens)

same assay, conditions: SMC2_TAILS HC; log fold change, mEQ over Luc

logFC.mEQ.over.Luc	Substance
−0.33	COL1A2_80 (QYDGKGVGLGPGPMGLMGPR; listed as Homo sapiens)
−0.05	COL1A2_270 (VGNAGPAGPAGPR; listed as Homo sapiens)
−0.32	COL1A2_305 (LTGAKGAAGLPGVAGAPGLPGPR; listed as Homo sapiens)
−0.30	COL1A2_630 (VGTAGPSGPSGLPGER; listed as Homo sapiens)
−0.46	COL1A2_866 (LLGAPGILGLPGSR; listed as Homo sapiens)
−0.16	COL1A2_960 (AGAPGPHGPVGPAGKHGNR; listed as Homo sapiens)
−0.25	COL1A2_1028 (LQGLPGIAGHHGDQGAPGSVGPAGPR; listed as Homo sapiens)
−0.32	COL4A2_71 (YNGPPGLQGFPGLQGR; listed as Homo sapiens)
−0.01	COL18A1_1505 (LQPPVVQLHDSNPYPR; listed as Homo sapiens)

same assay, conditions: log fold change, ADAMTS7 EQ over luciferase

logFC.mEQ.over.Luc	Substance
−0.09	SERBP1_56 (QAAAQTNSNAAGKQLR; listed as Homo sapiens)
−0.10	SRGN_59 (LLPGESNKIPR; listed as Homo sapiens)
0.59	THBS2_290 (LSENLKR; listed as Homo sapiens)
0.03	VIM_314 (QESTEYR; listed as Homo sapiens)
−0.03	VIM_333 (LKGTNESLER; listed as Homo sapiens)

Reference: patent US20240368668A1, “SUBSTRATES AND BIOMARKERS OF ADAMTS7” (The Broad Institute, Inc., priority 2021, published 2024)
